The DeepSol protein solubility set

Experiment: soluble on expression in E. coli; label from the status in PepcDB or PDB records

Sequence	soluble on expression in E. coli
NILKIRCAPVTWPIGMGKNFKGVYHILNDEIYLFEAGGERLPHEFDIIKGIDNPELEQRFPLEIQQLRDEIELVQAASNEFNLDEFLAGELTPVFFGSAINNFGIQEILNSLIDWAPAPKPRDATVRMVEPDEPKFSGFIFKIQANMDPKHRDRIAFLRVCSGKFERGMKMKHLRINREIAASSVVTFMSHDRELVEEAYAGDIIGIPNHGNIQIGDSFSEGEQLAFTGIPFFAPELFRSVRIKNPLKIKQLQKGLQQLGEEGAVQVFKPMSGADLILGAVGVLQFEVVTSRLANEYGVEAVFDSASIWSARWVSCDDKKKLAEFEKANAGNLAIDAGGNLAYLAPNRVNLGLTQERWPDIVFHETREHSVKL	not soluble
NIYDVAHDLDKGIRETPEFISLQDAYREVNENADAKAKFERFRDVQVTIQEKQMTGQEIDDETVNVAQQVAQEVQENELIVKLMEKEQAMSTIINDLNRIIMTPLQDLYNVA	not soluble
NLLDDAVKRISEDPPCKCPTKFCVERLSQGRYRVGEKILFIRMLHNKHVMVRVGGGWETFAGYLLKHDPCRMLQISRVDGKTSP	soluble
NSPITIGLALNKKLNNHWSIETGLQYIYLKSEFTTGKEYRIQKTQKLHYIGIPLRISYRFGNYKQFSFYSTAGLQMEIPIKGTLHTSHVTDSVPINLGYQSLDVPLQWSINASTGVQYHFTPHTSIYIEPTINYYIPDGSSLRTIRKEHPVTFSVPVGIRFSW	not soluble
NTITVSELLELIKKEDVIIVDTRSPREFKEETLPGAINIPLFLDDEHALIGKTYKQESREKAIEIATDIVEKSLKRILNEAKKLDRDKLIVVFCARGGMRSQTMALILQLLGFKVKRLIGGFKAFKHAVDK	not soluble
NTRLLEEIEERRRSERFFHATIDSLTAPVAILNGEGDIVTVNRAWRKFADENGGLHPNHFIGYNYLGLCDNVKGDDAVTASAVARGIRELIAGRINEFHVDYPCHSPDEQRWFQVRVTRLENGSRGRVAVVHENIS	not soluble
NTTGGRFVDKDNRKYYVKDDHKAIYWHKIDGKTYYFGDIGEMVVGWQYLEIPGTGYRDNLFDNQPVNEIGLQEKWYYFGQDGALLEQTDKQVLEAKTSENTGKVYGEQYPLSAEKRTYYFDNNYAVKTGWIYEDGNWYYLNKLGNFGDDSYNPLPIGEVAKGWTQDFHVTIDIDRSKPAPWYYLDASGKMLTDWQKVNGKWYYFGSSGSMATGWKYVRGKWYYLDNKNGDMKTGWQYLGNKWYYLRSSGAMVTGWYQDGLTWYYLNAGNGDMKTGWFQVNGKWYYAYSSGALAVNTTVDGYSVNYNGEWVQ	soluble
PAWWGERAHPISEGGRGSAWFVEASFGNAVLRQYRRGGMIAMLNRDRYFWCGGHRTRSVLEFRLMRELISRGLPVPTPLAACYVRHGVQYRAAILMERLEGVSSLAMCVRGNSKEIHWEQIGRMISRFHREGLDHADLNAHNILLDQAGQCWLIDFDRGALRIPATKWREHNLARLLRSLLKIRGERSVDAVYRDFERLCRAY	not soluble
PCCELITNISIPDDKAQNTLSEIEDAISNILGKPVAYIMSNYDYQKNLRFSGSNEGYCFVRLTSIGGINRSNNSLLADKITKILSNHLSVKPRRVYIEFRDCSAQNFAFSGSLFGGSRSHHHHHH	soluble
PELPEVETSRRGIEPHLVGATILHAVVRNGRLRWPVSEEIYRLSDQPVLSVQRRAKYLLLELPEGWIIIHLGMSGSLRILPEELPPEKHDHVDLVMSNGKVLRYTDPRRFGAWLWTKELEGHNVLTHLGPEPLSDDFNGEYLHQKCAKKKTAIKPWLMDNKLVVGVGNIYASESLFAAGIHPDRLASSLSLAECELLARVIKAVLLRSIEQGGTTLKDFLQSDGKPGYFAQELQVYGRKGEPCRVCGTPIVATKHAQRATFYCRQCQK	soluble
PFSFFHWIFIHPESHTESEISEIITHEETHARQYHSADVLVSEIMCTFCWFNPFVWLMKREVRGNLEYMADHRVLETGHDSKSYQYHLL	not soluble
PGDESEEQSIKAGMMVCHVFVPGFDDLSEQQQIHMAQAIDHPVRKTAHATEYAMLAGLVLGAVTVSIIRWKNVLVSVCIAVLYASTDELHQLFVPGRSGQVKD	not soluble
PGSSGLPPEKPKNLSCIVNEGKKMRCEWDGGRETHLETNFTLKSEWATHKFADCKAKRDTPTSCTVDYSTVYFVNIEVWVEAENALGKVTSDHINFDPVYKVKPNPPHNLSVINSEELSSILKLTWTNPSIKSVIILKYNIQYRTKDASTWSQIPPEDTASTRSSFTVQDLKPFTEYVFRIRCMKEDGKGYWSDWSEEASGITYEDRPSKEPSFW	soluble
PIDLITVGSLIELQDSQNPFQYWIVSVIENVGGRLRLRYVGLEDTESYDQWLFYLDYRLRPVGWCQENKYRMDPPSEIYPLKMASEWKCTLEKSLIDAAKFPLPMEVFKDHADL	soluble
PKQVGNAQHLYDNYDLVPAMIAEVNPRDMVVMALVNTNVDPTLPPRWALATRNITAIPGIEGDTRKVGTRIPAVAVTGQRSVGNQDSWDQISPMPIAWATPDSSVIARAESTIPSEQWTTLSKNLNKLDQVRETKFDLLEL	soluble
PKYTLHYFPLMGRAELCRFVLAAHGEEFTDRVVEMADWPNLKATMYSNAMPVLDIDGTKMSQSMCIARHLAREFGLDGKTSLEKYRVDEITETLQDIFNDVVKIKFAPEAAKEAVQQNYEKSCKRLAPFLEGLLVSNGGGDGFFVGNSMTLADLHCYVALEVPLKHTPELLKDCPKIVALRKRVAECPKIAAYLKKRPVRDF	soluble

Sequence	soluble on expression in E. coli
PMSEKQLAEVVERTVTPLMKAQAIPGMAVAVIYEGQPHYFTFGKADVAANKPVTPQTLFELGSISKTFTGVLGGDAIARGEISLGDPVTKYWPELTGKQWQGIRMLDLATYTAGGLPLQVPDEVKDNASLLRFYQNWQPQWKPGTTRLYANASIGLFGALAVKPSGMSYEQAITTRVFKPLKLDHTWINVPKAEEAHYAWGYRDGKAVHVSPGMLDAEAYGVKTNVQDMASWVMVNMKPDSLQDNSLRKGLTLAQSRYWRVGAMYQGLGWEMLNWPVDAKTVVEGSDNKVALAPLPAREVNPPAPPVNASWVHKTGSTGGFGSYVAFIPEKQLGIVMLANKSYPNPARVEAAYRILSAL	soluble
PPGPCLPPRLQGRPKAKEIQLRWGPPLVDGGSPISCYSVEMSPIEKDEPREVYQGSEVECTVSSLLPGKTYSFRLRAANKMGFGPFSEKCDITTAPG	soluble
PPHVEYMRRLELADYEPASDSGHIRYYPKGRLVKTLLEQFITRKCIDYGAMEVETPIMYDRNHPTLRRYLERFPARQYIIKGDKREFFLRFAACFGQFLMLSSSTITYRNLPLKIYELTRYSFRKEQRGELVGLRRLRAFTMPDMHTVAKDMEQAKEEFFNQYRLSVEVLREIGLEPEDYEVAVRITKDFYEENREFVHSLVDILKKPILIEMWDHRFFYFVLKFEFNFVDALDKASALSTVQIDVENAERYGITFVDSDGKEKHPYILHCSVSGAVERVMYALLEKAK	not soluble
PPKIRVVVRKRPISKKERERGDDDVVDVLAKNNTVVVNEEKVKVDLTKYLEKHAFKFDESLDENVSNEAVYQLTVGPLVRTLFRNGRASCFAYGQTGSGKTYTMSPLPIRASADIFTFMAQQQYRDISLCVSCFEIYGNKVFDLLNARKKLNILEDGKKKVVVVGLKEFGVDDVDGVKALIEESAKNRSTGSTAANADSSRSHSIMQFALKRAAPAPAGGFRRGEDAPEPRVVGKISFIDLAGSERGADTFDNNRQTRLEGAEINKSLLALKECIRALDSDARHVPFRGSKLTAVLRDSFVGDQARTVMIANISPCSSSVEHTLNTLRYADRVKELRKDKADRT	soluble
PRHRLLVVGAGQLSRYLCEMAIALDFDVTVSDPRQEYRAGWQVEGVALTTAMPDDMVIAARPDARTAVIALTHDPKLDDLALIDALQTPAFYVGALGSRANHARRVARLREHFGLTPAQLARLRGPAGIY	not soluble
PVDINAATHTIVRGDTVYNISKRYHISQDDFRAWNGMTDNTLSIGQIVKVKPAGYAAPKAAAVKSRPAVPAAAQPPVQSAPVDINAATHTIVRGDTVYNISKRYHISQDDFRAWNGMTDNMLSIGQIVKVKPAGYAAPKTAAVESRPAVPAAVQTPVKPAAQPPVQSAPQPAAPAAENKAVPAPAPQSPAASPSGTRSVGGIVWQRPTQGKVVADF	not soluble
PVFENNNQRYYESLPFKQLKELKIACSQYGPTAPFTIAMIENLGTQALPPNDWKQTARACLSGGDYLLWKSEFFEQCARIADVNRQQGIQTSYEMLIGEGPYQATDTQLNFLPGAYAQISNAARQAWKRLPSLEHHHHHH	soluble
QAKPGGKEDSVLYQLMRARVALIYEETPGIAAKRFRAQLVENPKSEPARYGLAIAQIKGGQLNEARESLKPLLEKSPNDITYNLTQIDLDITNNRLADAQQRVDRMLTLYPTSYPLNDVRIDVLLKQNRTAEAEKSLEALLKTRPDDPDIWYVVAETRG	not soluble
QCGACGESYAADEFWICCDLCEMWFHGKCVKITPARAEHIKQYKCPSCSNK	soluble
QDVGQKSIFSITPEFDEVRSISNVGSNGDISSHGNTIYFTRHTLNSPQDIFSIDNHGDDLTQLTHINKDKLGDVKFADYQQFNFKGWNDETVHGYWLKPANFEAGKKYPIAFLVHGGPQGSFGNMFHYRWNAQLWAAQGYGVVMVDFHGSTGYGQEFTHSISRDWGGKPLEDLQKGLDFIVKEQPWLDGDNACALGASYGGYMMNWIAGNWPTRFKCLINHAGLYDMPSFYQSTEELWFPEYDMGGPSWGKENGSAKGKVSPDYTKFNPSAYVNNWQTPMLVIQGELDYRVPYAQSLGAFTTLQRKGIDSRLVMFPDEDHHIRKPDNLVVWYDEVFKWLEKYTK	not soluble
QGHMRATNVTYQAHHVSRNKRGQVVGTRGGFRGCTIWLTGLSGAGKTTVSMALEEYLVCHGIPCYTLDGDNIRQGLNKNLGFSPEDREENVRRIAEVAKLFADAGLVCITSFISPYTQDRNNARQIHEGASLPFFEVFVDAPLHVCEQRDVKGLYKKARAGEIKGFTGIDSEYEKPEAPELVLKTDSCDVNDCVQQVVELLNERDILP	soluble
QGHVGDHDSHEVMQRLDALLPTLRERAQETEDLRRIPDDSMKALQETGFFRLLQPEQWGGYQADPVLFYSAVRKIASACGSTGWVSSIIGVHNWHLALFSQQAQEDVWGNDTDVRISSSYAPMGAGQVVDGGYTVNGAWAWSSGCDHASWAVLGGPVIKDGRPVDFVSFLIPREDYRIDDVWNVVGLRGTGSNTVVVEDVFVPTHRVLSFKAMSNLTAPGLERNTAPVYKMPWGTIHPTTISAPIVGMAYGAYDAHVEHQGKRVRAAFAGEKAKDDPFAKVRIAEASSDIDAAWRQLSGNVADEYALLVAGEEVPFELRLRARRDQVRATGRAISSIDKLFESSGATALANGTPLQRFWRDAHAGRVHAANDPERAYVMYGTGEFGLPITDTMV	soluble
QGMRAFLRVVETGNFTRASASLNMPKATVTNLIQGLEAHLRTKLLNRTTRRVLVTPDGALYYERAARLLSDLDELDGSLSTAQSLPKGRLRVETASAFANLVIIPALPEFHKKYPDIQIDLGVSDRTIDYLAENVDCAIRAGTLTDQSLIARRITEMKFVACASRDFLERHPVPQHPSDLEKNCYVVGYFLPKTGQQMPFHFRRGNEEIEVSGRYTMAANESTTYLAAARAGLGVIQAPLFMVREDLRNGTMVPVLPDWQVEPMPIYLVYPPNRHLSSRLRVFADWVVKVMAQSQNGEGS	soluble
QHQEAGAGDLCALCGEHLYVLERLCVNGHFFHRSCFRCHTCEATLWPGGYEQHPGDGHFYCLQHLPQTD	soluble
QKLGDGHYVMDGKVRIDQVNSLLGASIQEDVDTIGGLILKENIDIEAGESIRIGSYTIKVLKMDGRLIKQIDIKEEAGNTTGITAHHKLPLPEPVMLNSATLSEK	not soluble
